Measured values: US20230002480A1

Assays:
Experiment in all cases: cell-based or functional assay
[1] = target: HIV-1 Env of pseudovirus 3817.v2.c59 (HIV-1)
[2] = target: HIV-1 Env of pseudovirus Ce704809221_1B3 (HIV-1)
[3] = target: HIV-1 Env of pseudovirus Ce703010054_2A2 (HIV-1)
[4] = target: HIV-1 Env of pseudovirus 1056_10_TA11_1826 (HIV-1)
[5] = target: HIV-1 Env of pseudovirus T251-18 (HIV-1)
[6] = target: HIV-1 Env of pseudovirus 246F C1G (HIV-1)
[7] = target: HIV-1 Env of pseudovirus 7030102001E5(Rev-) (HIV-1)
[8] = target: HIV-1 Env of pseudovirus Ce0393_C3 (HIV-1)
[9] = target: HIV-1 Env of pseudovirus Q842.d12 (HIV-1)
[10] = target: HIV-1 Env of pseudovirus X1193_c1 (HIV-1)
[11] = target: HIV-1 Env of pseudovirus 0815.v3.c3 (HIV-1)
[12] = target: HIV-1 Env of pseudovirus CAP210.2.00.E8 (HIV-1)
[13] = target: HIV-1 Env of pseudovirus C1080.c03 (HIV-1)
[14] = target: HIV-1 Env of pseudovirus ZM233M.PB6 (HIV-1)
[15] = target: HIV-1 Env of pseudovirus 620345.c01 (HIV-1)
[16] = target: HIV-1 Env of pseudovirus Q259.d2.17 (HIV-1)
[17] = target: HIV-1 Env of pseudovirus X1254_c3 (HIV-1)
[18] = target: HIV-1 Env of pseudovirus HIV-16055-2.3 (HIV-1)
[19] = target: HIV-1 Env of pseudovirus HIV-001428-2.42 (HIV-1)
[20] = target: HIV-1 Env of pseudovirus Du172.17 (HIV-1)
[21] = target: HIV-1 Env of pseudovirus 249M B10 (HIV-1)
[22] = target: HIV-1 Env of pseudovirus R2184.c04 (HIV-1)
[23] = target: HIV-1 Env of pseudovirus REJO4541.67 (HIV-1)
[24] = target: HIV-1 Env of pseudovirus 3301.v1.c24 (HIV-1)
[25] = target: HIV-1 Env of pseudovirus 3103.v3.c10 (HIV-1)
[26] = target: HIV-1 Env of pseudovirus 1054_07_TC4_1499 (HIV-1)
[27] = target: HIV-1 Env of pseudovirus 6535.3 (HIV-1)
[28] = target: HIV-1 Env of pseudovirus CAAN5342.A2 (HIV-1)
[29] = target: HIV-1 Env of pseudovirus 62357_14_D3_4589 (HIV-1)
[30] = target: HIV-1 Env of pseudovirus R3265.c06 (HIV-1)
[31] = target: HIV-1 Env of pseudovirus Ce0682_E4 (HIV-1)
[32] = target: HIV-1 Env of pseudovirus 235-47 (HIV-1)
[33] = target: HIV-1 Env of pseudovirus C3347.c11 (HIV-1)
[34] = target: HIV-1 Env of pseudovirus CNE58 (HIV-1)
[35] = target: HIV-1 Env of pseudovirus BJOX009000.02.4 (HIV-1)
[36] = target: HIV-1 Env of pseudovirus 191084 B7-19 (HIV-1)

Substance: VRC01 (antibody)
- IC50, titer in TZM.bl cells [1]: > 50 µg/mL
- IC80, titer in TZM.bl cells [1]: > 50 µg/mL
- IC50, titer in TZM.bl cells [2]: 0.55 µg/mL
- IC80, titer in TZM.bl cells [2]: 2.05 µg/mL
- IC50, titer in TZM.bl cells [3]: 0.53 µg/mL
- IC80, titer in TZM.bl cells [3]: 1.84 µg/mL
- IC50, titer in TZM.bl cells [4]: 0.92 µg/mL
- IC80, titer in TZM.bl cells [4]: 3.28 µg/mL
- IC80, titer in TZM.bl cells [5]: 11.2 µg/mL
- IC50, titer in TZM.bl cells [6]: > 10 µg/mL
- IC80, titer in TZM.bl cells [6]: > 10 µg/mL
- IC50, titer in TZM.bl cells [7]: 0.54 µg/mL
- IC80, titer in TZM.bl cells [7]: 2.08 µg/mL
- IC50, titer in TZM.bl cells [8]: 0.62 µg/mL
- IC80, titer in TZM.bl cells [8]: 2.37 µg/mL
- IC50, titer in TZM.bl cells [9]: 0.03 µg/mL
- IC80, titer in TZM.bl cells [9]: 0.096 µg/mL
- IC50, titer in TZM.bl cells [10]: 0.11 µg/mL
- IC80, titer in TZM.bl cells [10]: 0.32 µg/mL
- IC50, titer in TZM.bl cells [11]: 0.06 µg/mL
- IC80, titer in TZM.bl cells [11]: 0.13 µg/mL
- IC50, titer in TZM.bl cells [12]: > 50 µg/mL
- IC80, titer in TZM.bl cells [12]: > 50 µg/mL
- IC50, titer in TZM.bl cells [13]: 3.4 µg/mL
- IC80, titer in TZM.bl cells [13]: 14.4 µg/mL
- IC50, titer in TZM.bl cells [14]: 2 µg/mL
- IC80, titer in TZM.bl cells [14]: 9.3 µg/mL
- IC50, titer in TZM.bl cells [15]: > 50 µg/mL
- IC80, titer in TZM.bl cells [15]: > 50 µg/mL
- IC50, titer in TZM.bl cells [16]: 0.17 µg/mL
- IC80, titer in TZM.bl cells [16]: 0.54 µg/mL
- IC50, titer in TZM.bl cells [17]: 0.07 µg/mL
- IC80, titer in TZM.bl cells [17]: 0.19 µg/mL
- IC50, titer in TZM.bl cells [18]: 0.08 µg/mL
- IC80, titer in TZM.bl cells [18]: 0.26 µg/mL
- IC50, titer in TZM.bl cells [19]: 0.02 µg/mL
- IC80, titer in TZM.bl cells [19]: 0.06 µg/mL
- IC50, titer in TZM.bl cells [20]: > 50 µg/mL
- IC80, titer in TZM.bl cells [20]: > 50 µg/mL
- IC50, titer in TZM.bl cells [21]: 0.13 µg/mL
- IC80, titer in TZM.bl cells [21]: 0.46 µg/mL
- IC50, titer in TZM.bl cells [22]: 0.08 µg/mL
- IC80, titer in TZM.bl cells [22]: 0.32 µg/mL
- IC50, titer in TZM.bl cells [23]: 0.06 µg/mL
- IC80, titer in TZM.bl cells [23]: 0.25 µg/mL
- IC50, titer in TZM.bl cells [24]: 0.14 µg/mL
- IC80, titer in TZM.bl cells [24]: 0.32 µg/mL
- IC50, titer in TZM.bl cells [25]: 0.93 µg/mL
- IC80, titer in TZM.bl cells [25]: 2.49 µg/mL
- IC50, titer in TZM.bl cells [26]: 0.71 µg/mL
- IC80, titer in TZM.bl cells [26]: 2.85 µg/mL
- IC50, titer in TZM.bl cells [27]: 0.54 µg/mL
- IC80, titer in TZM.bl cells [27]: 2.7 µg/mL
- IC50, titer in TZM.bl cells [28]: 0.82 µg/mL
- IC80, titer in TZM.bl cells [28]: 2.8 µg/mL
- IC50, titer in TZM.bl cells [29]: 0.96 µg/mL
- IC80, titer in TZM.bl cells [29]: 4.68 µg/mL
- IC50, titer in TZM.bl cells [30]: 0.45 µg/mL
- IC80, titer in TZM.bl cells [30]: 1.88 µg/mL
- IC50, titer in TZM.bl cells [31]: 0.08 µg/mL
- IC80, titer in TZM.bl cells [31]: 0.48 µg/mL
- IC50, titer in TZM.bl cells [32]: 0.04 µg/mL
- IC80, titer in TZM.bl cells [32]: 0.17 µg/mL
- IC50, titer in TZM.bl cells [33]: 0.17 µg/mL
- IC80, titer in TZM.bl cells [33]: 0.58 µg/mL

Substance: 8ANC195 (antibody)
- IC50, titer in TZM.bl cells [1]: 1 µg/mL
- IC80, titer in TZM.bl cells [1]: 5.3 µg/mL
- neutralization IC50 [2]: 0.48 µg/mL
- neutralization IC80 [2]: 3.52 µg/mL
- neutralization IC50 [3]: 13.6 µg/mL
- neutralization IC80 [3]: > 50 µg/mL
- neutralization IC50 [34]: > 50 µg/mL
- neutralization IC80 [34]: > 50 µg/mL
- neutralization IC50 [4]: > 50 µg/mL
- neutralization IC80 [4]: > 50 µg/mL
- neutralization IC50 [6]: 12.8 µg/mL
- neutralization IC80 [6]: > 50 µg/mL
- neutralization IC50 [7]: 0.86 µg/mL
- neutralization IC80 [7]: 8.32 µg/mL
- neutralization IC50 [8]: 6.77 µg/mL
- neutralization IC80 [8]: > 50 µg/mL
- neutralization IC50 [9]: > 30 µg/mL
- neutralization IC80 [9]: > 30 µg/mL
- IC50, titer in TZM.bl cells [10]: 0.27 µg/mL
- IC80, titer in TZM.bl cells [10]: 1.66 µg/mL
- neutralization IC50 [12]: > 50 µg/mL
- neutralization IC80 [12]: > 50 µg/mL
- IC50, titer in TZM.bl cells [13]: 0.17 µg/mL
- IC80, titer in TZM.bl cells [13]: 1.12 µg/mL
- neutralization IC50 [14]: 7.39 µg/mL
- neutralization IC80 [14]: 43.5 µg/mL
- IC50, titer in TZM.bl cells [15]: > 50 µg/mL
- IC80, titer in TZM.bl cells [15]: > 50 µg/mL
- neutralization IC50 [16]: > 50 µg/mL
- neutralization IC80 [16]: > 50 µg/mL
- IC50, titer in TZM.bl cells [17]: 6.95 µg/mL
- IC80, titer in TZM.bl cells [17]: 6.95 µg/mL
- neutralization IC50 [18]: 15.3 µg/mL
- neutralization IC80 [18]: > 50 µg/mL
- neutralization IC50 [19]: > 50 µg/mL
- neutralization IC80 [19]: > 50 µg/mL
- neutralization IC50 [20]: > 30 µg/mL
- neutralization IC80 [20]: > 30 µg/mL
- neutralization IC50 [21]: > 50 µg/mL
- neutralization IC80 [21]: > 50 µg/mL
- IC50, titer in TZM.bl cells [22]: 0.09 µg/mL
- IC80, titer in TZM.bl cells [22]: 13 µg/mL
- neutralization IC50 [23]: 0.08 µg/mL
- neutralization IC80 [23]: 0.68 µg/mL
- IC50, titer in TZM.bl cells [35]: 0.64 µg/mL
- IC80, titer in TZM.bl cells [35]: 3.09 µg/mL
- IC50, titer in TZM.bl cells [24]: > 50 µg/mL
- IC80, titer in TZM.bl cells [24]: > 50 µg/mL
- IC50, titer in TZM.bl cells [25]: 48.1 µg/mL
- IC80, titer in TZM.bl cells [25]: > 50 µg/mL
- neutralization IC50 [36]: > 50 µg/mL
- neutralization IC80 [36]: > 50 µg/mL
- neutralization IC50 [26]: 1.02 µg/mL
- neutralization IC80 [26]: 6.75 µg/mL
- neutralization IC50 [27]: 0.2 µg/mL
- neutralization IC80 [27]: 0.91 µg/mL
- neutralization IC50 [28]: > 50 µg/mL
- neutralization IC80 [28]: > 50 µg/mL
- neutralization IC50 [29]: > 50 µg/mL
- neutralization IC80 [29]: > 50 µg/mL
- IC50, titer in TZM.bl cells [30]: 50 µg/mL
- IC80, titer in TZM.bl cells [30]: > 50 µg/mL
- neutralization IC50 [31]: 0.2 µg/mL
- neutralization IC80 [31]: 1.29 µg/mL
- IC50, titer in TZM.bl cells [32]: > 50 µg/mL
- IC80, titer in TZM.bl cells [32]: > 50 µg/mL
- IC50, titer in TZM.bl cells [33]: > 50 µg/mL
- IC80, titer in TZM.bl cells [33]: > 50 µg/mL
